Substitutions are numbered along the chain they refer to. Names may count otherwise. One block for each binder: values may come before it.
Assays:
[1] = target: T1, mCherry-tagged CDK5 (cyclin-dependent kinase 5) (UniProt Q00535 1-292); experiment: co-IP; N1E-115 cells co-transfected with mCherry-tagged CDK5 and HA-tagged 5-HT7R constructs; IP with anti-mCherry antibody, Western blot with anti-HA antibody; ratio of co-precipitated receptor normalized to the WT sample; also done after knock-down of Gαs by shRNA (Additional file 5); conditions: partners not purified
T1 construct: Cyclin-dependent kinase 5 (CDK5); Printed both as CDK5-mCherry and as mCherry-CDK5; also called CDK5-mCherry; mCherry-CDK5; source: N1E-115 cells, transfected, in lysate

[2] = target: T1, mCherry-tagged CDK5 (cyclin-dependent …); experiment: cell-based or functional assay

co-precipitated receptor, normalized to WT [1]: 100%
B1: HA-tagged 5-HT7R (serotonin receptor 7), wild type (receptor, UniProt P32304 1-448, looked up)
chain: MMDVNSSGRPDLYGHLRSLILPEVGRRLQDLSPDGGAHSVVSSWMPHLLSGFPEVTASPAPTWDAPPDNVSGCGEQINYGRVEKVVIGSILTLITLLTIAGNCLVVISVCFVKKLRQPSNYLIVSLALADLSVAVAVMPFVSVTDLIGGKWIFGHFFCNVFIAMDVMCCTASIMTLCVISIDRYLGITRPLTYPVRQNGKCMAKMILSVWLLSASITLPPLFGWAQNVNDDKVCLISQDFGYTIYSTAVAFYIPMSVMLFMYYQIYKAARKSAAKHKFSGFPRVQPESVISLNGVVKLQKEVEECANLSRLLKHERKNISIFKREQKAATTLGIIVGAFTVCWLPFFLLSTARPFICGTSCSCIPLWVERTCLWLGYANSLINPFIYAFFNRDLRTTYRSLLQCQYRNINRKLSAAGMHEALKLAERPERSEFVLQNCDHCGKKGHDT
notes: Serotonin receptor 7 (5-HT7R), wild type; pcDNA3.1(+) vector; also called 5-HT7R WT; WT; source: N1E-115 cells, transfected, in lysate; not shown: HA, N-terminal, kept

co-precipitated receptor, normalized to WT [1]: 73.8%
phosphorylation of endogenous CDK5 at S159 (read-out for CDK5 activation) in N1E-115 cells expressing the HA-tagged receptor, % of WT [2]: 45.7%
B2: HA-tagged 5-HT7R F281A (receptor, UniProt P32304 1-448, looked up)
chain: B1 chain with F281A
notes: Serotonin receptor 7 (5-HT7R) with F281A in intracellular loop 3; Primers are in Additional file 1; source: N1E-115 cells, transfected, in lysate; not shown: HA, N-terminal, kept

co-precipitated receptor, normalized to WT [1]: 64.5%
phosphorylation of endogenous CDK5 at S159 (read-out for CDK5 activation) in N1E-115 cells expressing the HA-tagged receptor, % of WT [2]: 49.2%
B3: HA-tagged 5-HT7R F278A;F281A (receptor, UniProt P32304 1-448, looked up)
chain: B1 chain with F278A, F281A
notes: Serotonin receptor 7 (5-HT7R) with F278A and F281A in intracellular loop 3; Primers are in Additional file 1; also called F278;F281A; source: N1E-115 cells, transfected, in lysate; not shown: HA, N-terminal, kept

From PMC11031989, “Structural determinants for activation of the Tau kinase CDK5 by the serotonin receptor 5-HT7R” (Cell Communication and Signaling : CCS, 2024)
